The experiment concerns the target human Gal10-His (human) (UniProt Q05315). Nature of the experiment: competition ELISA on coated Gal10-His; negative control, competitor g7B07-hFab-Biot; set as 0%. On the technique in general: An ELISA detects its analyte on a solid surface through an enzyme-linked reagent.

Chain of human Gal10-His (human) (Q05315 2-142 limits assumed): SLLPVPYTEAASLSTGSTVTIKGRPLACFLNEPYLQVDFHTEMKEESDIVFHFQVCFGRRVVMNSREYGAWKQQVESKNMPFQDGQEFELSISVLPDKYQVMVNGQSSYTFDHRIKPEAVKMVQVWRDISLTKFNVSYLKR

Regarding Motavizumab in a human Fab backbone, the % Competition against g7B07-Biot was found to be 0% and the Mean OD value was 2.51 OD.

(Values after US20250059285A1.)
